# Measured values from patent US11905559B2, “Materials and methods for controlling gene expression” (priority 2016, dated 2024).
# Where “and” joins values, the source holds several entries; their conditions need not be identical. Equal values may be shown once.
# B1: m3: m3 mutant guanine sensing aptamer RNA (SEQ ID NO: 4); G38 replaced with adenine in the L2 loop (nucleic acid)
# chain: CACUCAUAUAAUCGCGUGGAUAUGACACGCAAGUUUCUACCGGGCACCGUAAAUGUCCGACUAUGGGUG
# modifications: RNA, backbone and methylation of C not given here
# notes: G38 replaced with adenine in the L2 loop
# B2: m2: m2 mutant guanine sensing aptamer RNA (SEQ ID NO: 3); G37A in L2 and C61U in L3 (nucleic acid)
# chain: CACUCAUAUAAUCGCGUGGAUAUAGCACGCAAGUUUCUACCGGGCACUGUAAAUGUCCGACUAUGGGUG
# modifications: RNA, backbone and methylation of C not given here
# notes: G37A in L2 and C61U in L3
# B3: m8: m8 mutant guanine sensing aptamer RNA (SEQ ID NO: 9); A19G and U77C in the P1 hairpin (nucleic acid)
# chain: CACUCGUAUAAUCGCGUGGAUAUGGCACGCAAGUUUCUACCGGGCACCGUAAAUGUCCGACUACGGGUG
# modifications: RNA, backbone and methylation of C not given here
# notes: A19G and U77C in the P1 hairpin
# Assays:
# [1] = Constant-force (CF) single-molecule optical tweezers folding assay of guanine-aptamer RNAs in guanine buffer; type: physicochemical; details: for Folding rate kf / Transition distance ΔX / Unfolding rate ku / ΔG (0): 200 nM G; for ΔG (0): zero force
# Excerpt: The aptamer folding was monitored in real time using a constant-force (CF) assay. Equilibrium sampling techniques provide unprecedented insights into the rare events in the course of folding that are otherwise difficult to identify. The technique also allows for determination of the kinetic rates that has not been fully investigated in the guanine riboswitch. The relative dynamics of the helices have been investigated in ensemble and smFRET experiments, which indicated a non-dynamic P1-P3, upon which the P2 helix switches conformations. As shown in FIG. 6A (left panel), the RNA oscillated between the linear and the hairpin conformations (E↔D↔C) at 13 pN. The distances ΔXED=7.1±0.4 nm and ΔXDC=7.9±0.4 nm correspond to the folding of a 17±1 nt (P2) and 19±1 nt (P3) respectively (FIGS. 7A-B). The conversion of distances to nucleotides in CF assay are described in Table 2.
# A miniaturized dual beam optical tweezers instrument was constructed with a sampling rate of 0.4, 4 and 40 kHz. Typically, in the tweezers set up (FIGS. 2A-E), a single-molecule of RNA is held between two beads via ˜550 nucleotide (nt) long Handles A and B. Preparation of Handles and the RNA is described in the section above. The streptavidin coated polystyrene bead (diameter 1.5-1.9 μm, Spherotech Inc.) is fixed on a micropipette via suction, and the anti-digoxigenin coated bead (diameter 4.0-4.9 μm, Spherotech Inc.) is held in the dual counter-propagating laser beam. The trap stiffness, K is measured at 0.04-0.06 pN/nm from the power spectrum analysis of the Brownian motion of the trapped bead. For power spectrum analysis, a polystyrene bead with diameter ˜4.6 μm is trapped in the counter-propagating laser beam in aqueous buffer with a fixed trap position. […] The average from 10 beads yielded K˜0.049±0.0008 pN/nm, and the stoke's drag coefficient, y=0.0364±0.0002 pN. s/μm. […] However, the autocorrelation time (τ0) defined as the τ1=1/2πfc as described by Zoldak et al., “Ultrafast folding kinetics and cooperativity of villin headpiece in single-molecule force spectroscopy”. Proc. Natl. Acad. Sci. U.S.A 110, 18156 (2013) sets the detection limit for the observable kinetics, which is different from the sampling frequencies. […] The ACF for the time series of force signal, Fi, with sampling rate δ and N data points, is calculated as,
# In a constant-force (CF) experiment, the RNA is held at a preset force through feedback control. The preset force typically fluctuated around the mean with a standard deviation ±0.15 pN. In this mode, data is recorded from 4-40 kHz to capture the fast intermediates. The plots are shown as extension vs. time (as in FIG. 6A). In force-jump (FJ) assay, the force is suddenly jumped from one force to another, and then held constant thereafter, as shown in FIGS. 23A-B.
# All FR, CF and FJ experiments were carried out at an ambient temperature, 25±0.5° C. The buffer in the microfluidics contained 10 mM Tris-HCl, pH 7.5 at 25° C., 250 mM NaCl, 3 mM MgCl2, and purine concentrations as indicated in wild-type aptamer. Unless stated otherwise, Mg^2+ concentration in the buffer was maintained at 3 mM in all experiments. The buffer in mutant m1 contained 5 mm Mg^2+ and 1 μM G, and in m3 contained 5 mM Mg^2+ and 200 nM Guanine. For the remaining m2, m4, m5 and m6 mutants, the buffer in single-molecule experiments was supplemented only with 3 mM Mg^2+ and 200 nM Guanine.
# In the force-ramp experiment, the trap was moved away (pull cycle) from the micropipette at 200 nm/sec, which corresponded to a loading rate of 7-8 pN/sec. This movement of the trap exerted a tension at the ends of the tethered RNA aptamer. […] In the constant-force (CF) experiment, the RNA was held at a preset force (FIG. 6A). The loading rate in CF experiments was zero. The preset force typically fluctuated around the mean with standard deviation ±0.15 pN. […]
# lac Z expression = assay: β-galactosidase reporter assay (xpt-lacZ fusion); type: cell-based, B. subtilis; details: presence and absence of guanine; B. subtilis
# Experimental: Kissing-loop mutants were analyzed to determine whether they can exert riboswitch activities by controlling transcription termination, given that the guanine binding was retained in all of them. To test this, a β-galactosidase reporter assay was performed in B.subtilis. […] The gene expression is repressed in wild-type due to the transcription termination in the presence of guanine. […] The fast kissing dynamics between the L2-L3 probably have a stabilizing effect on P1, and therefore an increase in the transcription termination is observed. […] This underscores that the L2-L3 dynamics are directly involved in the P1-helix formation, which affects the terminator hairpin downstream that ultimately results in an alteration of the riboswitch activities.
# To assess if the aptamer mutants can exert a transcriptional control similar to the previously reported wild-type xpt-pbuX riboswitch, a xpt-lacZ fusion was constructed as described by Mandal et al., “Riboswitches control fundamental biochemical pathways in Bacillus subtilis and other bacteria”. Cell 113, 577-586 (2003). Briefly, nts −121 to +197 relative to the transcriptional start site of the xpt-pbuX operon from B. subtilis 1A1 (BGSC, Columbus, Ohio) was PCR amplified and cloned upstream of the lacZ reporter gene into pDG1661 vector. After confirming the cloned sequence, plasmid variants were integrated into the amyE locus of the 1A1 strain. Transformants were selected for double markers, specifically for chloramphenicol (5 μg/ml) resistance and sensitivity to spectinomycin (100 μg/ml). Selected B. subtilis colonies were subsequently grown in minimal media (25 g/L K2HPO4·3H2O, 6 g/L KH2PO4, 1 g/L sodium citrate, 0.2 g/l MgSO4·7H2O, 2 g/L Na2SO4, 50 μM FeCl3, 2 μM MnCl2, 50 μg/ml L-Tryptophan, 50 μg/ml L-Lysine, 50 μg/ml L-Methionine, 0.4 g/100 ml glucose, and 0.2 g/100 ml glutamate) at 37° C. with vigorous shaking. Purines were added at a final concentration of 0.1 mg/ml. Cells were harvested at mid-logarithmic growth phase (A600˜0.1-0.4), and resuspended in the above buffer for the reporter assay. The color development was recorded by measuring absorbance, A420 at the end of the reaction with appropriate controls. Data is represented in Miller Units calculated from the following relation:
# [formula] where Δt is the total duration taken in the substrate cleavage by […], measured as absorbance, A420. The Miller Units shown in FIG. 4A represents mean±standard deviation from 3 independent experiments, wherein each independent experiment was performed in duplicate.
# [2] = Isothermal titration calorimetry (ITC); type: binding
# Experimental: For ITC experiments, wild-type G-aptamer and the mutant RNAs were synthesized by in vitro transcription of the DNA template and purified by denaturing polyacrylamide gel electrophoresis (PAGE). The ligand guanine was introduced in the syringe, while the RNA into the sample cell at a final concentration of 10 μM and 1 μM respectively. The concentrations were determined by absorbance reading using ε260=12010 M^−1 cm^−1 (guanine) and ε260=711400 M^−1 cm^−1 (RNA). The buffer in the syringe and the sample cell contained 50 mM K^+ Hepes (pH 7.5), 100 mM KCl, and 10 mM MgCl2. Binding reactions were performed at 30° C. on a MicroCal iTC200 instrument (Malvern) with a reference power of 6 μcal/sec, an initial delay of 60 secs and a stirring speed of 750 rpm. Guanine was titrated into the sample cell in 16 injections (2.5 μl each). The injection rate was 0.5 μl/sec and the spacing between the injections was maintained at 120 sec. Data was baseline corrected and fitted to a single-site binding model to obtain association constant (KA), stoichiometry (n) and binding enthalpy, ΔH. The dissociation constant (KD) and the binding free energy, ΔG was obtained from the fitted parameters using the following relations. All data analysis was performed using the Origin ITC software.
# The ITC results are reported as mean±standard deviation from three independent experiments.
# [3] = transition C′A (merged C′B and BA), F 6.1 pN, 5 mM Mg^2+
# [4] = transition C′A (merged C′B and BA), F 6.1 pN, 3 mM Mg^2+
# [5] = transition BA (P1 folding), F 8.5 pN, 3 mM Mg^2+
# [6] = transition C′B (L2-L3 folding), F 8.5 pN, 3 mM Mg^2+
# [7] = transition DC (P3 folding), F 12.0 pN, 3 mM Mg^2+
# [8] = transition ED (P2 folding), F 13.5 pN, 3 mM Mg^2+
molecule,measurement,setting,value
B1,Equilibrium force F^eq,"[1]; transition C′A (merged C′B and BA), 5 mM Mg^2+, 200 nM G (rates at 6.1 pN)",6 pN and 6.1 ± 0.02 pN
same,Folding rate kf,[1]; [3],0.8 ± 0.05 s⁻¹
same,Transition distance ΔX,[1]; [3],12.5 ± 0.4 nm
same,Unfolding rate ku,[1]; [3],0.69 ± 0.05 s⁻¹
same,ΔG (0),"[1]; transition C′A (merged C′B and BA), from data at 6.1 pN, 5 mM Mg^2+",−12.7 ± 0.6 kBT
same,lac Z expression / transcriptional control (in words),lac Z expression,completely de-repressed
same,KD off relative to wild-type,[2],~18 fold
B2,Equilibrium force F^eq,"[1]; transition C′A (merged C′B and BA), 3 mM Mg^2+, 200 nM G (rates at 6.1 pN)",6 pN and 6.0 ± 0.03 pN
same,Folding rate kf,[1]; [4],0.53 ± 0.06 s⁻¹
same,Transition distance ΔX,[1]; [4],12.4 ± 0.4 nm
same,Unfolding rate ku,[1]; [4],0.8 ± 0.11 s⁻¹
same,ΔG (0),"[1]; transition C′A (merged C′B and BA), from data at 6.1 pN, 3 mM Mg^2+",−11.9 ± 0.6 kBT
same,lac Z expression / transcriptional control (in words),lac Z expression,completely de-repressed
same,KD off relative to wild-type,[2],~9 fold
same,Kd,"[2]; 30° C., 50 mM K^+ Hepes pH 7.5, 100 mM KCl, 10 mM MgCl2, read-out: KD for guanine",36 ± 0.2 nM
B3,Equilibrium force F^eq,"[1]; transition BA (P1 folding), 3 mM Mg^2+, 200 nM G (rates at 8.5 pN)",8.8 ± 0.2 pN
same,Folding rate kf,[1]; [5],0.4 ± 0.05 s⁻¹
same,Unfolding rate ku,[1]; [5],0.2 ± 0.05 s⁻¹
same,Transition distance ΔX,"[1]; transition BA (P1 folding), F 8.5 pN, 3 mM Mg^2+, no helix width adjustment",9.5 ± 0.3 nm
same,ΔG (0),"[1]; transition BA (P1 folding), from data at 8.5 pN, 3 mM Mg^2+",−14.3 kBT and −14.3 ± 0.7 kBT
same,Equilibrium force F^eq,"[1]; transition C′B (L2-L3 folding), 3 mM Mg^2+, 200 nM G (rates at 8.5 pN)",8.4 ± 0.3 pN
same,Folding rate kf,[1]; [6],1.4 ± 0.2 s⁻¹
same,Transition distance ΔX,[1]; [6],3.6 ± 0.2 nm
same,Unfolding rate ku,[1]; [6],1.5 ± 0.2 s⁻¹
same,ΔG (0),"[1]; transition C′B (L2-L3 folding), from data at 8.5 pN, 3 mM Mg^2+",−7.4 ± 0.5 kBT
same,Equilibrium force F^eq,"[1]; transition DC (P3 folding), 3 mM Mg^2+, 200 nM G (rates at 12.0 pN)",11.8 ± 0.1 pN
same,Folding rate kf,[1]; [7],15.9 ± 0.4 s⁻¹
same,Transition distance ΔX,[1]; [7],7.7 ± 0.2 nm
same,Unfolding rate ku,[1]; [7],17.5 ± 0.5 s⁻¹
same,ΔG (0),"[1]; transition DC (P3 folding), from data at 12.0 pN, 3 mM Mg^2+",−15.5 ± 0.6 kBT
same,Equilibrium force F^eq,"[1]; transition ED (P2 folding), 3 mM Mg^2+, 200 nM G (rates at 13.5 pN)",13.5 ± 0.03 pN
same,Folding rate kf,[1]; [8],10.5 ± 0.4 s⁻¹
same,Transition distance ΔX,[1]; [8],7.0 ± 0.2 nm
same,Unfolding rate ku,[1]; [8],13.2 ± 0.5 s⁻¹
same,ΔG (0),"[1]; transition ED (P2 folding), from data at 13.5 pN, 3 mM Mg^2+",−16.0 ± 0.7 kBT
same,lac Z expression / transcriptional control (in words),lac Z expression,stringent control
